The source of these data is paper doi:10.1101/301622 (bioRxiv, 2018).

The target of the test is ΔCTT, a variant of FtsZ that lacks the CTT (B. subtilis).

“ΔCTT, a variant of FtsZ that lacks the CTT (domain or fragment)” came in with a GTPase activity (coupled assay, 5 μM protein, 1 mM GTP), relative to WT FtsZ of 3 fold.
